Experimental data from the DeepSol protein solubility set.

Test: soluble on expression in E. coli; label from the status in PepcDB or PDB records

| Sequence | soluble on expression in E. coli |
| --- | --- |
| MKPSWDIFCSVVDNYGDAGVTWRLARQLVAEHDVQVRLWIDDLAAFVRLCPDADPCASQQLREGVSVCRWPADWVSSTVPDVVIEAFACRLPTSYTESMLQRSPRPLWLNLEYLSAEDWVSGCHGLPSPQMNGLKKFFFFPGFADTTGGLLRERNLIGQRQAFQQDKALQQAFLQELNVEPLAGARLISVFAYETPRLDSWLDALASDSRPTHLLVPEGRILADVQRWLGSEGQLHAGTVQASGALTVQVLPFIRQERYDQLLWSCDFNVVRGEDSFVRAQWAGRPMLWHIYQQEEDAHLPKLDAFLALYL | not soluble |
| MSGAGHSLNSDPVTTIATSSSEPVTSPSSASHVPVQTAPASHGAPSSVASQPPASVDGKAGAPDEARTASSASNPQGSEHPGSVDPAATTTAATTSASTTSITSTAATTTTTTTTGTTATGRVSPTIPPETLFHDAIKRCNNCLFLIRKLRNKQDHIARLFLDTSGNDQAEFNSAFQNYKDFGLMVHEVMMFYDKLDHIARHLPKALPPIDNINLMRTLYTQEHTMCHININNLLEKMIDCGNWNEGNFQTFFYLSELLRCGSTRKYSNLPEQRLVPPAMFHSQATNSHAAFEHAFNGLRKEIANKSLGIYPKVLQRTTCSLIIEFLFGCGGAKPGEKNTDKEIVYTIKFLIIERNGSIEYINIMAPTEDWHMVNDYAIPTINPFAPSRYEVYRRLTKQANIHLFNCFAQNRWTAGTLFHFISLYGKFRELFTTKCRSCKQVLSRKNFLPPLIFDIRNPNNAAHEVCR | not soluble |
| MGSDKIHHHHHHMKSIKELYRIGTGPSSSHTMGPRKAAEMFLTRHPEAASFKVTLYGSLAATGKGHMTDVAIIDTLKPTAPVDIIWQPKIFLPFHPNGMNFVALDAGGNELENWTVYSVGGGALAEDNKQPSIESPEVYSMNSMTEILDWCEHTGKSYWEYVKECEDPDIWDYLKEVWDTMKESVQRGLEQEGVLPGPLNLRRKASTYYIRATGYKASLQSRGLVFAYALAVSEENASGGKIVTAPTCGSCGVMPAVLYHLAKSREFSEMRILRALATAGLIGNIVKQNASISGAEVGCQGEVGVACAMASAAANQLFGGSPAQIEYAAEMGLEHHLGMTCDPVCGLVQIPCIERNAYAAARALDANLYSSFTDGMHRVSFDKVIQVMKQTGHDLPSLYKETSEGGLAKDYKPM | not soluble |
| MSVITPTSSIAANDHRAQFLGLLDTSLSQNSLIKLVLAKYVGSEADLQRIIIKPLTVKEQPCLSFVYRYKTRDITKNFPLAEAVAVIASLIPESFKNAHLLSLSDEVQLEYSKKGKTTLFKSKAQQEREAPSAGHDREKKRYLELSRPFLADLGVTNRQHELIPAMSRKWKQINKFIEVFSHALSSSSLKLDQPIKVADFGSGKGYLTFAIHDYLCNTLQAQGQVTGVELREDMVTLCNNAAAGLEHPGLTFQHGDVRSVAPRALDVMIALHACDIATDYAIHMGIRSGASIIMCSPCCHKQIRLQIQSPSLLKPMLQYGLHMGQQAEMVTDSLRALLLDACGYETKVFEFISLEHTNKNKMILAVKRAEPANPAQLLVRIQELKAFYGISEQCLETLLQADGFLG | not soluble |
| MEERNEQVVEEVKEAQVEEAVTPENSEETVEEKSEAALLQEKVDELQAKLTETEGRTLRLQADFENYKRRVQMDKQAAEKYRAQSLVSDILPALDNFERAMQVEATDEQTKSLLQGMEMVHRQLLEALNKEGVEVIEAVGKQFDPNEHQAIMQVEDSEFESNAVVEEFQKGYKLKDRVIRPSMVKVNQ | not soluble |
| MAEVMSQTLEDAMRRNPHLRKYVEEFRRKYGKIPEFHVQLSRDMKEIPYPNIIYPVGDPIFIHIYGDPNTEKQYIVIEPRIETKEEEEKYKLIRDRMLELAPNKDIPEEQEEFERFLDSLFEEAVL | not soluble |
| MGSDKIHHHHHHAEVPVSDTIQQEAPAKVQITYDDPRDPFEGFNRAMWDFNYLYLDRYLYRPVAHGYNDYIPMPAKTGINNFVQNLEEPSSLVNNVLQGKWGWAANAGGRFTINSTVGLLGVIDVADMMGMSRKQDEFNEVLGYYGVPNGPYFMAPFAGPYVVRELASDWVDGLYFPLSELTMWQTIVKWGLKNLHSRASAIDQERLVDNALDPYAFVKDAYLQHMDYKVYDGNVPQKQDDDELLDQYMQELE | not soluble |
| MGSDKIHHHHHHMPMTNLAALSIPDLQQYAQGAVAAPFGLVLDDGSVLQSLEVVRRVPGKRLVCRGLLNGQAIYAKLFIGGQAGKYAARDKRGARWLAQARLATPTLLLESGVASQGCEALLYGAIPARNAEQVWQDLDEEGRHALALRLVEEVARHHRAGLLQTDLYLKNFLVDAQAVYTLDGDGIRQLRVFGRQRQQWDNLARLISKFDVDAVAAWLPSLLRQYVAVIGGGASDIDIMQQLIARHWRRDMRQYASKVQRSCTDVAVEEKPWHYLAINRAQDSPGVRQALATPDGLLDATSAVRLKSGNTCTVAAVEIDQRKMVIKRYNIKNFWHGLGRAWRPSRAVVSWSNAFRLQLKGIATPAAVAVLERRWLGLRREAYLLTEFMIARDAAEFYADLTIDREVKERVAQRIARLFFQLFCLQLEHGDFKATNILIRDQYPLLIDLDSMRQHACKKRFERRHARDLQRFFKNWQGDAATSQLLAAAFRAVYADGRVLDQAGIVFNQSEKDE | not soluble |
| MGSDKIHHHHHHMLKEAISYSIADESVRIVQVTDPHLFADPEAQLLGVNTSKSLAAVLNTIRAVNYPAHLLLATGDLSQDYSPESYRQFVSAVAPLNLPCHYLPGNHDDPRIMFLHMQGERVFGQQRILVGKWQILMLDSTVRGKPGGHMGEGQFELIEQAIAAHPEHHTLLVMHHNPILVNCAWLDQHCMDNGAEFLRRVAQYPQVKALLWGHVHQQLDTYYDGPHRALQLMATPSTCIQFKPQSPYFALDGLQPGYRLLELKADGSISTNVYRVPGNLFSPDKDSSGY | not soluble |
| MISSLAVEFGALRLACTSKIVMATRNMPARGTKPLPRHLWDMSDLEEKTSGQYTHKPLRINRLGGRDPETGRKVNQHIGGGVKFDYFMIDFHRRGPADQGATYDERILEIRRDPNRTCHIALCAGINGKRWILATENMKAGDVISTSGHLSENPVIGVEGNAYPIGSLAAGTVINSIERYPTMDSETFVKAAGTSATIVRHQGDFTVVKLPHKHEFSLHRTCMATVGRLSHADIDGKIFGSAQMHRRFGYKMSSGLFHKKDGYFGRKVRALPPVRILDTPPQAPPPNQRFTLSKKDLSGLHGHAKVHNLIPAGYSTRDYPE | not soluble |
| MIKQNSFVPYPEAMLPKGFKYPQSYLKLAQSTHAINYDEQYSFPWWFENAESNISEVIDIYFEITGIPNLLPFARNQEWAACFDISDKSGNPKIIVVNLDNTKYYETFENFDTWLKEAENDGW | soluble |
| MGHHHHHHSHMTKLPPIEQLLPHDKPMILVDRAMDIQQDTIHCQVDIAEHNPFFDSASQTVPAYVGIEFMAQSVAAWSGYHALMKEQAPPIGFLLGSRRYTSECDAFSRGQMLDVYAEKVMEDNGMAVFSARIELQGTVVATCQLNVYVPSEEKLQEMKIRSQQ | not soluble |
| MGSDKIHHHHHHMPTLTEIGNDQLTVQISSLGAEMQSLRTKDGQSLLWHGDAAYWGGRSPILFPIVGKAKDDTLLIDGKPYSMAQHGIARRREFTLLEAGADVCRHELTAGDETKAAYPFDFSLVLEHRLHGAALTVAATVSNRSDTPMPYGLGFHPAFLWPLPGAEGKPHTITLENGAEPPLLRLGGGLLAEEARPSPFHAGRLVLDKSQFEEDAMIFPEGAGTELTYRAEDAASLHFHFENLPNLALWQKPGAPFICIEPWHGMAARHGKSGELTERPYTVILAPGDSARHGFTVTVEA | not soluble |
| MMAARLLGTSSRIFKLNKHLHTSKVAFMPVVQFKLSDIGEGIAEVQVKEWYVKEGDTISQFDKVCEVQSDKAAVTISCRYDGIVKKLYHEVDGMARVGQALIDVEIEGNVEEPEQPKKEAASSSPEAPKSSAPKAPESAHSEGKVLATPAVRRIAIENKIKLAEVRGTGKDGRVLKEDVLKFLGQVPADHTSGSTNIRTTHQAPQPSSKSYEPLKEDVAVPIRGYTRAMVKTMTEALKIPHFGYNDEINVDSLVKYRAELKEFAKERHIKLSYMPFFIKAASLALLEYPSLNSTTDEKMENVIHKASHNICLAMDTPGGLVVPNIKNCEQRSIFEIAQELNRLLEAGKKQQIKREDLIDGTFSLSNIGNIGGTYASPVVFPPQVAIGAIGKIEKLPRFDKHDNVIPVNIMKVSWCADHRVVDGATMARFSNRWKFYLEHPSAMLAQLK | not soluble |
| MAHHHHHHMNPQTSLTRKQCDFTKLIMAGYDLELNNGSTQDFDVMFHGPNGTAYEGGIWKVHVTLPDDYPFASPSIGFMNKLLHPNVDEASGSVCLDVINQTWTPLYSLVNVFEVFLPQLLTYPNPSDPLNSDAASLLMKDKNIYEEKVKEYVKLYASKDLWEQQKKEKKPSNINGNISPVSELSYVDQDVQDIDLDNL | soluble |
| MGRFQTLDYEIPESMQRSWQDIVNLLAQIADVPTTLIMRVHQNHIEVNTSSDTQGNPYKAGDKEDLGHGLYCEHVIETKSQLVVPDALADEKWSNNPDIKLGMLSYCGLPLFWPNGETFGTICMLDSKANEYSETYRQLLNTFKDSIEAQLAVVYQQYKLLR | not soluble |
| MREVKAFVTQDIPLYHNLVMKHIPGADPELVLLNHYYEELDRIPLFEMTRAEINKLLAELGFYKKDHPEDQVPEEFRFSPAKDSPFEGRQSSTAAPETTEPSDSQHTDL | soluble |
| MIAKHIDRFPLLKLDRVIDWQLIEQYLNRQKTRYLRDHRGRPAYPLLSMFKAVLLGQWHSLSDPELEHSLITRIDFNLFCRFDELSIPDYSTLCRYRNRLAQDNTLSELLELINRQLTEKGLKIEKASAAVVDATIIQTAGSKQRQAIEVDEEGQISGQTTPSKDSDARWIKKNGLYKLGYKQHTRTDAEGYIEKLHITPANAHECKHLSPLLEGLPKGTTVYADKGYDSAENRQHLEEHQLLDGIMRKAHRNRPLTEVQTKRNRYLSKTRYVVEQSFGTLHRKFRYARAAYFGLVKVSAQSHLKAMCLNLLKAANRLSAPAAA | not soluble |
| MGSDKIHHHHHHMNTDIAKNTNSLNDDKKSNSEQRPYGIVLYGATSFVGQITAHYLAEFLSTSKDASGTTVTWAIAGRDEKKLNELQSKLASKVNIIIANSDDATSLDELTEQTQVIISTVGPYLKYGEPLIKSCVDNGTDYVDLTGEAIFIKDMIDKYQEAAKQSGARIVNSCGFDSIPSDLGVYFTQKQAEAKFDSACDVIHMRVKAAKGGLSGGTIASMATIFEEVGQDKSRRKQVANPYLLNDDKDVPNVRQSNVSKPEYDSEHKRWLAPFVMASINTRIVHRSNQLLGYEYGRDFKYDEAMWMKDGIKGKLTSYALSAGLLGFATAMMITPSRELLSKHVLPKSGSGPSKEEQENGYFDIRLFGKTANKETIATKVTGDKDPGYGSTSRMLSQAALCLAQDISKEAVGGGFWTPASAMGDKLLARLKEHAGLSFDVIDR | not soluble |
| EMFYFEPVNIKKYLGSIGSELSDEVITIEQFFNLNSEYITIIDARSPREFSEKTISNAVNIPLFLTEEYETIGKLYKHEGKEVAIAKAGIIIQDGIKRIVSESLKLDPNKNLVVFCARGGMRSQSIATILKLLGFKVKRLVGGFKSYNISKT | not soluble |
| MGHHHHHHSHMPGRSSSNSGSTGFISFSGVESALSSLKNFQACINSGMDTASSVALDLVESQTEVSSEYSMDKAMVEFATLDRQLNHYVKAVQSTINHVKEERPEKIPDLKLLVEKKLLALQSKNSDADFQNNEKFVQFKQQLKELKKQCGLQADREADGTEGVDEDIIVTQSQTNFTCPITKEEMKKPVKNKVCGHTYEEDAIVRMIESRQKRKKKAYCPQIGCSHTDIRKSDLIQDEALRRAIENHNKKRHRHSE | not soluble |
